In patent US20230416410A1 (ZOETIS SERVICES, published 2023):

T1: CTLA4 Fc bIgG1aWin (canine; bovine, UniProt Q9XSI1 36-161, limits assumed)
T1 construct: No linker
T1 sequence: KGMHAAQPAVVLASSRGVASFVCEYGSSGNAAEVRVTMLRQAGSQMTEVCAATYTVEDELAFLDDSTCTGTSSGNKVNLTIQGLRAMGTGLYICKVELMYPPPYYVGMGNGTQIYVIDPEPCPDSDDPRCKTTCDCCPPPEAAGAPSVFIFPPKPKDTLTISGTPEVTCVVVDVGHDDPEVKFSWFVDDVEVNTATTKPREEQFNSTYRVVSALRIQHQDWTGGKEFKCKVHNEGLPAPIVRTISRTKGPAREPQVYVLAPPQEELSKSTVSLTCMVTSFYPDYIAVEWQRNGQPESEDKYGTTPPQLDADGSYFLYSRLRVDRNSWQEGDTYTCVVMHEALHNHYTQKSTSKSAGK

T2: CTLA4 Fc bIgG1aSAP (canine; bovine, UniProt Q9XSI1 36-161, limits assumed)
T2 construct: No linker
T2 sequence: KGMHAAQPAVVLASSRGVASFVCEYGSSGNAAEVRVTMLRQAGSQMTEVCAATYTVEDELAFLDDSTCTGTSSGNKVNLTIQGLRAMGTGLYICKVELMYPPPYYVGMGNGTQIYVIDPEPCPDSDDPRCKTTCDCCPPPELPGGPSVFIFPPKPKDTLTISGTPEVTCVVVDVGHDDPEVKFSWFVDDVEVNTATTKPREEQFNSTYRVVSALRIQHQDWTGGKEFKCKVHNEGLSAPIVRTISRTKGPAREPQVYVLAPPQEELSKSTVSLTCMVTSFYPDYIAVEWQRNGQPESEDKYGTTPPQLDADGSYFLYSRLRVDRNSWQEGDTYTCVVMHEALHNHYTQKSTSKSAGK

T3: CTLA4 Fc bIgG1aWinSAS (canine; bovine, UniProt Q9XSI1 36-161, limits assumed)
T3 construct: No linker
T3 sequence: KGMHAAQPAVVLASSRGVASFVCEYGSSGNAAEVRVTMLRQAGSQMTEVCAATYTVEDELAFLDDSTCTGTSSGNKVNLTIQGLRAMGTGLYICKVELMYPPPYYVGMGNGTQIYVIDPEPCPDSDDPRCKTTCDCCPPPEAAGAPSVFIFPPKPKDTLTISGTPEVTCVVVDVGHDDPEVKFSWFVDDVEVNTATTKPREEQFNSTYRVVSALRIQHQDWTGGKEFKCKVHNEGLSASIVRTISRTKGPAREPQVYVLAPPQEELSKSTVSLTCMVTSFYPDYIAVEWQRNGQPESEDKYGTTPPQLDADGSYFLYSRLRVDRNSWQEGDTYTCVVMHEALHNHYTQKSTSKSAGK

T4: CTLA4 Fc bIgG1a (canine; bovine, UniProt Q9XSI1 36-161, limits assumed)
T4 construct: No linker; also called bIgG1a wildtype; CTLA4 Fc bIgG1a wildtype
T4 sequence: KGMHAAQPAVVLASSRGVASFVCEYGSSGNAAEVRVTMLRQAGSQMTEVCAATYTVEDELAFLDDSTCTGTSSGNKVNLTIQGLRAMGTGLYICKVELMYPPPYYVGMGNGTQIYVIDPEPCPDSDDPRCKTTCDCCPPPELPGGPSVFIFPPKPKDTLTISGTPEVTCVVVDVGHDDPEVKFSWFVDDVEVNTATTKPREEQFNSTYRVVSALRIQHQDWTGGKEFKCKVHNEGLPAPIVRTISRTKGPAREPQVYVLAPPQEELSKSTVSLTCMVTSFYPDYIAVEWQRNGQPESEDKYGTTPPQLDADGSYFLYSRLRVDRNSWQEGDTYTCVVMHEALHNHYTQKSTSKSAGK

T5: CTLA4 Fc bIgG1aSAS (canine; bovine, UniProt Q9XSI1 36-161, limits assumed)
T5 construct: No linker
T5 sequence: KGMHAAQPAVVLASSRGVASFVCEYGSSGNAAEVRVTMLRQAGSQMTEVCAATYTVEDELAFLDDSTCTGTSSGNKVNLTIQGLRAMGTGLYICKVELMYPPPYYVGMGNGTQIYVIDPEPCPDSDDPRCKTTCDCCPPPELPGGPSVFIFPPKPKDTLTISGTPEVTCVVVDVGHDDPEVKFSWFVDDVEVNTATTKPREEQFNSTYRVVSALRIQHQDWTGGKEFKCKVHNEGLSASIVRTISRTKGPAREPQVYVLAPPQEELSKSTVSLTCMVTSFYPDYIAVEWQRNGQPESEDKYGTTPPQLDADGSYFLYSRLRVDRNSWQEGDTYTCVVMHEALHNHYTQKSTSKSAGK


Tests used:
Test in all cases: SPR Biacore, biotinylated receptor on SA sensor, pH 7.4, 15 C
CTLA4 Fc bIgG1aWin = molecular target: T1, CTLA4 Fc bIgG1aWin
Method: (§1) A Biacore SPR binding assay was designed to test the affinity of bovine IgG subclasses to bFcgR1, bFcgR2 and bFcgR3. All reported KD's were measured by Biacore (Cytiva, Marlborough, MA, USA) using series S SA sensor. Biotinylated-bovine FcgR1, R2 and R3 were captured on the sensor surface using a modified SA capture method to reach the desired surface density. 10 mM HEPES, 150 mM NaCl, 3 mM EDTA, 0.05% v/v surfactant P20, pH7.4 buffer was used as the running and titration buffer. Various concentrations of bovine CTLA4-Fc fusions or mAbs were titrated and flowed over the receptor surface and affinities were determined using Biacore T200 Evaluation software (Cytiva, Marlborough, MA, USA) with 1:1 binding model. The method of double referencing has been applied where the reference flow cell was subtracted from the flow cell containing immobilized receptors and blank runs containing buffer only were subtracted out from all runs. Flow cells were regenerated using 10 mM Glycine pH1.5. Runs were performed at 15° C.
(§2) The ability to knock out binding to bovine Fc gamma receptors was evaluated by comparing SPR Biacore bFcgR affinity of bIgG1a and bIgG1b wildtype Fc to the bIgG1a and bIgG1b mutations, described above. All mutations made to bIgG1 are identical for the a and b allotypes. Biacore methods for bFcgR1, R2, and R3 were performed as described in Example 1.

CTLA4 Fc bIgG1aSAP = molecular target: T2, CTLA4 Fc bIgG1aSAP
Method: as §1, §2

CTLA4 Fc bIgG1aWinSAS = molecular target: T3, CTLA4 Fc bIgG1aWinSAS
Method: as §1, §2

CTLA4 Fc bIgG1a = molecular target: T4, CTLA4 Fc bIgG1a
Method: as §1, §2

CTLA4 Fc bIgG1aSAS = molecular target: T5, CTLA4 Fc bIgG1aSAS
Method: as §1, §2

Kd (CTLA4 Fc bIgG1aWin) [nM] | binding result (CTLA4 Fc bIgG1aSAP) | binding result (CTLA4 Fc bIgG1aWinSAS) | Kd (CTLA4 Fc bIgG1a) [nM] | binding result (CTLA4 Fc bIgG1aSAS) | binding result (CTLA4 Fc bIgG1aWin) | Binder
2.79 | no binding | no binding | 3.37 | no binding |  | recombinant bovine FcgR2 (receptor, biotin on the BAP tag (BirA), also called bFcgR2; bFcgRII) KPDLPKAVVTIQPAWINVLREDHVTLTCQGTSFSAGNLTTWFHNGSSIHTQKQPSYSFRAGSNDSGSYRCQREQTSLSDPVHLDVISDWLLLQTPSLVFQEGEPIMLRCHSWRNQPLNKITFYQDRKSKIFSYQRTNFSIPRANLSHSGQYHCTAFIGKMLHSSQPVNITVQESSSSGPSSMTHHHHHHAGLNDIFEAQKIEWHE
 | no binding | no binding | 14.3 | no binding | no binding | recombinant bovine FcgR3 (receptor, biotin on the BAP tag (BirA), also called bFcgR3; bFcgRIII) DTQTADPSKAVVLLDPQWNHVLTNDRVTLKCQGDYPVEDNSTKWWHNGTLISSQTPSYFIADVKVQDSGEYKCQTGLSAPSDPVKLEVHVGWLLLQVAQRVVNVGKPIRLKCHSWKKTPVAKVQYFRNGRGKKYSHGNSDFHIPEAKLEHSGSYFCRGIIGSKNESSESVQITVQAPETLQTVSSFFLPWHQHHHHHHAGLNDIFEAQKIEWHE
